The source of these data is patent US20100204099A1 (ALBERT EINSTEIN COLLEGE OF MEDICINE OF YESHIVA UNIVERSITY, published 2010).

Where no end group is shown, it is not given here.

Assay [1] concerns the target T1, IGF binding protein-3 (IGFBP-3) (human, UniProt P17936 28-291, 125-I-labeled when used as probe in the dot blot).
T1 construct: also called hIGFBP-3; non glycosylated hIGFBP-3
As to the kind of experiment: dot blot on nitrocellulose probed with 125-I-labeled IGFBP-3, autoradiography and densitometry (FIG. 17A).

Assay [2] deals with T1, IGF binding protein-3 (IGFBP-3). As to the kind of experiment: dot blot of peptides probed with 125-I-labeled IGFBP-3 (FIG. 17A).

T1 sequence (P17936 28-291 limits assumed): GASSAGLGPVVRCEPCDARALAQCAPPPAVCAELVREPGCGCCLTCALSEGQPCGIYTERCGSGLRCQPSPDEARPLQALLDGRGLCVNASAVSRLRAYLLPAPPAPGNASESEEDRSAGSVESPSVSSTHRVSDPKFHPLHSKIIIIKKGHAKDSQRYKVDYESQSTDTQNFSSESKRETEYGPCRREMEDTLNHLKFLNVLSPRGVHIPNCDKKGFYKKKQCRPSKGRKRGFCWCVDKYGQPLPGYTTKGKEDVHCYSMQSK

B1: Humanin analog F6A (peptide)
peptide: MAPRGASCLLLLTSEIDLPVKRRA
notes: also called F6A HN; F6A-HN
For B1, the binding result in assay [1] was “no binding (tested: 50 ng of peptide blotted)”.

B2: Humanin (peptide)
peptide: MAPRGFSCLLLLTSEIDLPVKRRA
notes: 50 ng was spotted on nitrocellulose in the dot blot; also called HN; human humanin
Regarding B2, the binding result in assay [2] is listed as “binds”.

B3: Humanin analog HNGF6A (peptide)
peptide: MAPRGASCLLLLTGEIDLPVKRRA
modifications: not fully specified
notes: also called F6AHNG; HN
As for B3, the binding result in assay [1] is “no binding (tested: 50 ng of peptide blotted)”.
